Data: paper PMC6370319 (Cell reports, 2019)
Numbering of substitutions follows the chain as printed. Numbers in names are those of the source.

T1: OGT-FLAG (human, UniProt O15294-3 1-1036)
T1 sequence: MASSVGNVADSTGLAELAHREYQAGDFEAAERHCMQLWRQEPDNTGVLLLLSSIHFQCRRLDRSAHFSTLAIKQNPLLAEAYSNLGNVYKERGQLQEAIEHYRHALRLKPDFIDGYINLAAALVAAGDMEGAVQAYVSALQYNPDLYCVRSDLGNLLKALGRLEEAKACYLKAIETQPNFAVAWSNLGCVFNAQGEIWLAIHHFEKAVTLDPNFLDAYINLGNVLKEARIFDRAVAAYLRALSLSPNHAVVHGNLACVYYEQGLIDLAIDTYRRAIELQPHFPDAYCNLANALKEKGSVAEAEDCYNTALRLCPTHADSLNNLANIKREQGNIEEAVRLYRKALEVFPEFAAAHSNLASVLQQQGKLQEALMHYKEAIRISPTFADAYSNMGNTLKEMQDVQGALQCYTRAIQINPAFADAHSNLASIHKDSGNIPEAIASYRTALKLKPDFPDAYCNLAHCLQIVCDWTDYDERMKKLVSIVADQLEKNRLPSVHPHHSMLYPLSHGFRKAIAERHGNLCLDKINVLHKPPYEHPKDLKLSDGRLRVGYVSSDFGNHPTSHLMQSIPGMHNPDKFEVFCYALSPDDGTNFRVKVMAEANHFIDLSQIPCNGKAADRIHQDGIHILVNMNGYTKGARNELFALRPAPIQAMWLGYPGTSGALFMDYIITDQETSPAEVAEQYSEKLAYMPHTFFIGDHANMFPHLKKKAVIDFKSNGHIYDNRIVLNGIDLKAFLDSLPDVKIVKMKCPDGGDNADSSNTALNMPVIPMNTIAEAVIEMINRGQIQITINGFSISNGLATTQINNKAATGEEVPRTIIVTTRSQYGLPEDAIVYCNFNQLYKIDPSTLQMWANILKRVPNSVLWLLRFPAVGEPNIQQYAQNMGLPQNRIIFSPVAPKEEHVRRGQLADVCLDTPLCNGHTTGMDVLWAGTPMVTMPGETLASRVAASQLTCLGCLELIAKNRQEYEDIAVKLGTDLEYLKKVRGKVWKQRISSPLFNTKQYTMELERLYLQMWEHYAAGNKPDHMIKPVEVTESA

B1: FNIP1-D-His6 (domain or fragment)
chain: TEWDIPRNESSDSALGDSESEDTGHDMTRQVSSYYGGEQEDWAEEDEIPFPGSKLIEVSAVQPNIANFGRSLLGGYCSSYVPDFVLQGIGSDERFRQCLMSDLSHAVQHPVLDEPIAEAVCIIADMDKWTVQVASSQRRVTDNKLGKEVLVSSLVSNLLHSTLQLYKHNLSPNFCVMHLEDRLQELYFKSKMLSEYLRGQMRVHVKELGVVLGIESSDLPLLAAVASTHSPYVAQILL
B2: FNIP1-D-His6 S948A (domain or fragment)
chain: B1 chain with S20A
B3: FNIP1-D-His6 S941A (domain or fragment)
chain: B1 chain with S13A
B4: FNIP1-D-His6 S946A (domain or fragment)
chain: B1 chain with S18A
B5: FNIP1-D-His6 S939A (domain or fragment)
chain: B1 chain with S11A
B6: FNIP1-D-His6 S938A (domain or fragment)
chain: B1 chain with S10A

molecular target: T1, OGT-FLAG; assay: pull-down; conditions: not given

Row | Molecule | binding result
1 | B1 | binds
2 | B2 | binds
3 | B3 | binds
4 | B4 | binds
5 | B5 | binds
6 | B6 | binds

molecular target: Hsp90α (UniProt P07900); assay: FNIP1-FLAG IP from yeast, Hsp90α blot; conditions: reference: wild type FNIP1-FLAG; sites S948

Row | Molecule | binding against the reference
7 | FNIP1 (from UniProt Q8TF40) S948A | weaker
